In US20240316154A1 (Eli Lilly, published 2024):
Like-named read-outs stand apart in the source and are kept apart here. Values belong to the binder of their own block, whether it stands above or below them.

Columns and labels:
[1] = target: IL-2 receptor-dimer pair of the PathHunter IL-2 BioAssay cells; assay: cell-based or functional assay
Rabbit serum albumin [2] = target: T1, Rabbit serum albumin (rabbit, UniProt P49065 25-608); assay: SPR, SA on chip, 25 C
T1 construct: bought; immobilised on a CM5 chip by amine coupling; also called Rabbit SA
Protocol: (§1) Human SA is obtained from Sigma Aldrich (Cat. No. A8763). […] Mouse SA is obtained from Sigma Aldrich (Cat. No. A3139). Rat SA is obtained from Sigma Aldrich (Cat. No. A4538). Pig SA is obtained from Sigma Aldrich (Cat. No. A4414). […] Cow SA is obtained from Sigma Aldrich (Cat. No. A7030). […] Excess reactive groups on the surfaces (flow cell 1 and 2) are deactivated by injecting 70 μl of 1 M Ethanolamine hydrochloride-NaOH pH 8.5.
(§2) 180 μl of sample are individually injected sequentially across the immobilized SAs on the chip's surface and dissociated for 600 sec at 60 μl/min flow rate at 25° C.

[3] = target: T2, Cynomolgus monkey serum albumin (cynomolgus monkey, UniProt A2V9Z4 25-608); assay: SPR, SA on chip, 1:1 fit, 25 C
T2 construct: bought; immobilised on a CM5 chip by amine coupling; also called Cyno SA
Protocol: as §1, §2

Human serum albumin [4] = target: T3, Human serum albumin (human, UniProt P02768 25-609); assay: SPR, SA on chip, 1:1 fit, 25 C
T3 construct: bought; immobilised on a CM5 chip by amine coupling; also called Human SA
Protocol: as §1, §2

Dog serum albumin [5] = target: T4, Dog serum albumin (dog, UniProt P49822 25-608); assay: SPR, SA on chip, 1:1 fit, 25 C
T4 construct: bought; immobilised on a CM5 chip by amine coupling; also called Dog SA
Protocol: as §1, §2

Cow serum albumin [6] = target: T5, Cow serum albumin (cow, UniProt P02769 25-607); assay: SPR, SA on chip, 1:1 fit, 25 C
T5 construct: bought; immobilised on a CM5 chip by amine coupling; also called Cow SA
Protocol: as §1, §2

Mouse serum albumin [7] = target: T6, Mouse serum albumin (mouse, UniProt P07724 25-608); assay: SPR, SA on chip, 1:1 fit, 25 C
T6 construct: bought; immobilised on a CM5 chip by amine coupling; also called Mouse SA
Protocol: as §1, §2

Rat serum albumin [8] = target: T7, Rat serum albumin (rat, UniProt P02770 25-608); assay: SPR, SA on chip, 1:1 fit, 25 C
T7 construct: bought; immobilised on a CM5 chip by amine coupling; also called Rat SA
Protocol: as §1, §2

Pig serum albumin [9] = target: T8, Pig serum albumin (pig, UniProt P08835 25-607); assay: SPR, SA on chip, 1:1 fit, 25 C
T8 construct: bought; immobilised on a CM5 chip by amine coupling; also called Pig SA
Protocol: as §1, §2

Rabbit serum albumin [10] = target: T1, Rabbit serum albumin; assay: SPR, SA on chip, 25 C; remark: listed apart in the source
Protocol: as §1, §2

[11] = target: T2, Cynomolgus monkey serum albumin; assay: SPR, SA on chip, 1:1 fit, 25 C; remark: listed apart in the source
Protocol: as §1, §2

Human serum albumin [12] = target: T3, Human serum albumin; assay: SPR, SA on chip, 1:1 fit, 25 C; remark: listed apart in the source
Protocol: as §1, §2

Dog serum albumin [13] = target: T4, Dog serum albumin; assay: SPR, SA on chip, 1:1 fit, 25 C; remark: listed apart in the source
Protocol: as §1, §2

Cow serum albumin [14] = target: T5, Cow serum albumin; assay: SPR, SA on chip, 1:1 fit, 25 C; remark: listed apart in the source
Protocol: as §1, §2

Mouse serum albumin [15] = target: T6, Mouse serum albumin; assay: SPR, SA on chip, 1:1 fit, 25 C; remark: listed apart in the source
Protocol: as §1, §2

Rat serum albumin [16] = target: T7, Rat serum albumin; assay: SPR, SA on chip, 1:1 fit, 25 C; remark: listed apart in the source
Protocol: as §1, §2

Pig serum albumin [17] = target: T8, Pig serum albumin; assay: SPR, SA on chip, 1:1 fit, 25 C; remark: listed apart in the source
Protocol: as §1, §2

- EC50 (nM), PathHunter IL-2 BioAssay [1]: 0.49 nM
- binding result (Rabbit serum albumin [2]): no binding (tested: up to 1000 nM)
- Kd [3]: 0.39 nM
- koff [3]: 0.00056 s⁻¹
- kon [3]: 1.4e+06 M⁻¹ s⁻¹
- Kd (Human serum albumin [4]): 0.23 nM
- koff (Human serum albumin [4]): 0.00021 s⁻¹
- kon (Human serum albumin [4]): 910000 M⁻¹ s⁻¹
- Kd (Dog serum albumin [5]): 1.8 nM
- koff (Dog serum albumin [5]): 0.0016 s⁻¹
- kon (Dog serum albumin [5]): 920000 M⁻¹ s⁻¹
- Kd (Cow serum albumin [6]): 78 nM
- koff (Cow serum albumin [6]): 0.052 s⁻¹
- kon (Cow serum albumin [6]): 670000 M⁻¹ s⁻¹
- Kd (Mouse serum albumin [7]): 3.9 nM
- koff (Mouse serum albumin [7]): 0.0038 s⁻¹
- kon (Mouse serum albumin [7]): 970000 M⁻¹ s⁻¹
- Kd (Rat serum albumin [8]): 3 nM
- koff (Rat serum albumin [8]): 0.0029 s⁻¹
- kon (Rat serum albumin [8]): 970000 M⁻¹ s⁻¹
- Kd (Pig serum albumin [9]): 13 nM
- koff (Pig serum albumin [9]): 0.0058 s⁻¹
- kon (Pig serum albumin [9]): 450000 M⁻¹ s⁻¹
B1: VHH-based fusion of Example 7, VHH fusion 7 (MC6.1C22-(G4Q)5-IL2) (other)
chain: EVQLLESGGGLVQPGGSLRLSCAASGRYIDETAVAWFRQAPGKEREFVAGIGGGVDITYYADSVKGRFTISRDNSKNTLYLQMNSLRPEDTAVYYCAARPGRPLITSKVADLYPYWGQGTLVTVSSGGGGQGGGGQGGGGQGGGGQGGGGQAPQSSSTQQTQLQLEHLLLDLQMILNGINNYKNPKLTRMLTFKFYMPKKATELKHLQCLEEELKPLEEVLNLAQSKNFHLRPRDLISRINVIVLELKGSETTFMCEYADETATIVEFLNRWITFAQSIISTLT
notes: also called Compound 7; VHH-IL-2 fusion

- binding result (Rabbit serum albumin [10]): no binding (tested: up to 1000 nM)
- Kd [11]: 0.96 nM
- koff [11]: 0.00087 s⁻¹
- kon [11]: 910000 M⁻¹ s⁻¹
- Kd (Human serum albumin [12]): 0.15 nM
- koff (Human serum albumin [12]): 0.00011 s⁻¹
- kon (Human serum albumin [12]): 720000 M⁻¹ s⁻¹
- Kd (Dog serum albumin [13]): 5.4 nM
- koff (Dog serum albumin [13]): 0.0038 s⁻¹
- kon (Dog serum albumin [13]): 710000 M⁻¹ s⁻¹
- Kd (Cow serum albumin [14]): 120 nM
- koff (Cow serum albumin [14]): 0.093 s⁻¹
- kon (Cow serum albumin [14]): 800000 M⁻¹ s⁻¹
- Kd (Mouse serum albumin [15]): 18 nM
- koff (Mouse serum albumin [15]): 0.01 s⁻¹
- kon (Mouse serum albumin [15]): 560000 M⁻¹ s⁻¹
- Kd (Rat serum albumin [16]): 11 nM
- koff (Rat serum albumin [16]): 0.0071 s⁻¹
- kon (Rat serum albumin [16]): 660000 M⁻¹ s⁻¹
- Kd (Pig serum albumin [17]): 27 nM
- koff (Pig serum albumin [17]): 0.013 s⁻¹
- kon (Pig serum albumin [17]): 490000 M⁻¹ s⁻¹
B2: VHH-based fusion of Example 8, VHH fusion 8 (GLP1-(G4Q)5-MC6.1C22.43) (other)
chain: HGEGTFTSDVSSYLEEQAAKEFIAWLVKGGGGGGGQGGGGQGGGGQGGGGQGGGGQEVQLLESGGGLVQPGGSLRLSCAASGRYIDETAVAWFRQAPGKEREFVAGIGGGVDITYYADSVKGRFTISRDNSKNTLYLQMNSLRPEDTAVYYCAARPGRPLITSKVADLYPYWGQGTLVTVSSPP
notes: also called Compound 8; GLP-1-VHH fusion
